These results are taken from the Human Domainome abundance scans (Beltran et al. 2025).

± gives the uncertainty stated by the source.

B1: Homeobox expressed in ES cells 1, residues 110 to 165; numbered along this chain, Q9UBX0 (parent)
chain: RPRTAFTQNQIEVLENVFRVNCYPGIDIREDLAQKLNLEEDRIQIWFQNRRAKLKR

This data set covers variants of B1. In words: abundance fitness (aPCA) (normalised: wild type 0, dead -1); higher = more abundant; growth selection in yeast, the domain comes from the species named. To be noted: Homo sapiens.
Turning to K53M, the abundance fitness was -0.075 ± 0.15.

K53I: the abundance fitness is -0.156 ± 0.24.

For the variant K53C, the abundance fitness is -0.459 ± 0.18.

As to K53F, the abundance fitness is -0.326 ± 0.37.

Turning to K53P, the abundance fitness is -0.345 ± 0.29.

As for K53L, the abundance fitness is -0.067 ± 0.071.

K53Y: the abundance fitness was -0.492 ± 0.15.

In the case of K53D, the abundance fitness is -0.067 ± 0.26.

Regarding K53S, the abundance fitness was -0.017 ± 0.083.

For the variant N49E, the abundance fitness turned out to be 0.43 ± 0.12.

As for N49W, the abundance fitness was -0.471 ± 0.11.

Consider N49D, for which the abundance fitness worked out at 0.044 ± 0.11.

For the variant N49R, the abundance fitness is -0.291 ± 0.14.

For N49P, the abundance fitness was -0.648 ± 0.34.

With N49F, the abundance fitness is -0.604 ± 0.41.

Turning to N49C, the abundance fitness is -0.425 ± 0.088.

With N49A, the abundance fitness was 0.217 ± 0.13.

On to N49Q, for which the abundance fitness is -0.124 ± 0.37.

N49L: the abundance fitness was -0.19 ± 0.1.

With N49G, the abundance fitness was -0.527 ± 0.093.

For the variant N49K, the abundance fitness was -0.102 ± 0.23.

For the variant N49I, the abundance fitness is -0.46 ± 0.23.

As to N49M, the abundance fitness came out at 0.052 ± 0.2.

In the case of N49T, the abundance fitness is -0.019 ± 0.11.

With N49S, the abundance fitness is -0.198 ± 0.16.

With N49H, the abundance fitness was -0.232 ± 0.31.

Regarding R51Q, the abundance fitness was -0.43 ± 0.3.

R51A: the abundance fitness is -0.424 ± 0.17.

For R51I, the abundance fitness was -0.336 ± 0.31.

As to R51L, the abundance fitness is -0.752 ± 0.24.

Turning to R51K, the abundance fitness was -0.577 ± 0.27.

Turning to R51D, the abundance fitness is 0.168 ± 0.45.

For the variant R51C, the abundance fitness was -0.368 ± 0.12.

Regarding R51N, the abundance fitness was -0.131 ± 0.19.

R51V: the abundance fitness is -0.243 ± 0.079.

For the variant R51Y, the abundance fitness was -0.782 ± 0.16.

Turning to R51S, the abundance fitness is -0.491 ± 0.27.

For the variant R51M, the abundance fitness is -0.109 ± 0.12.

R51G: the abundance fitness was -0.671 ± 0.18.

On to R51E, for which the abundance fitness was -0.632 ± 0.12.

Turning to R51T, the abundance fitness was -0.301 ± 0.23.

On to K55P, for which the abundance fitness was -0.042 ± 0.19.

With K55Y, the abundance fitness is -0.479 ± 0.35.

Take K55I: the abundance fitness is 0.143 ± 0.15.

In the case of K55S, the abundance fitness is -0.399 ± 0.12.

K55N: the abundance fitness was -0.068 ± 0.31.

For the variant K55A, the abundance fitness is -0.451 ± 0.24.

For the variant K55R, the abundance fitness is -0.369 ± 0.089.

For K55V, the abundance fitness is -0.672 ± 0.37.

In the case of K55M, the abundance fitness was -0.181 ± 0.078.

In the case of K55L, the abundance fitness is -0.583 ± 0.23.

As to K55H, the abundance fitness is -0.27 ± 0.12.

For K55G, the abundance fitness is -0.302 ± 0.21.

With K55E, the abundance fitness amounted to 0.334 ± 0.17.

For the variant K55D, the abundance fitness is -0.419 ± 0.37.

For the variant K55F, the abundance fitness is -0.349 ± 0.46.

In the case of F47L, the abundance fitness is -0.842 ± 0.19.

For F47S, the abundance fitness was -0.724 ± 0.37.

Regarding F47G, the abundance fitness is -0.855 ± 0.09.

For the variant F47A, the abundance fitness was -0.698 ± 0.17.

For the variant F47W, the abundance fitness was -0.908 ± 0.44.

Consider F47Y, for which the abundance fitness is -0.455 ± 0.49.

As to F47R, the abundance fitness was -0.952 ± 0.2.

Take F47D: the abundance fitness is -0.576 ± 0.46.

As to F47E, the abundance fitness is -0.942 ± 0.32.

F47I: the abundance fitness is -0.449 ± 0.18.

In the case of F47C, the abundance fitness is -0.851 ± 0.28.

As to F47V, the abundance fitness is -0.841 ± 0.25.

As for L38T, the abundance fitness came out at 0.077 ± 0.074.

For the variant L38F, the abundance fitness was 0.009 ± 0.13.

On to L38C, for which the abundance fitness turned out to be 0.151 ± 0.11.

Regarding L38K, the abundance fitness is -0.685 ± 0.42.

Consider L38P, for which the abundance fitness is -0.533 ± 0.25.

Take L38D: the abundance fitness is -0.665 ± 0.38.

L38G: the abundance fitness is -0.952 ± 0.19.

Regarding L38Q, the abundance fitness is -0.223 ± 0.39.

With L38A, the abundance fitness is -0.181 ± 0.14.

Regarding L38I, the abundance fitness was 0.146 ± 0.12.

L38W: the abundance fitness is -0.885 ± 0.36.

As to L38E, the abundance fitness was -0.521 ± 0.25.

On to L38V, for which the abundance fitness amounted to 0.061 ± 0.065.

For the variant L38R, the abundance fitness is -0.849 ± 0.1.

In the case of L38S, the abundance fitness is -0.259 ± 0.11.

Turning to L38N, the abundance fitness is -0.572 ± 0.27.

For the variant L38Y, the abundance fitness is -0.717 ± 0.26.

On to A52S, for which the abundance fitness was -0.104 ± 0.19.

As for A52N, the abundance fitness was -0.03 ± 0.17.

On to A52L, for which the abundance fitness is -0.499 ± 0.25.

With A52F, the abundance fitness was -0.361 ± 0.15.

Consider A52E, for which the abundance fitness was determined as 0.059 ± 0.19.

Consider A52W, for which the abundance fitness was -0.505 ± 0.15.

On to A52K, for which the abundance fitness is -0.064 ± 0.086.

As to A52G, the abundance fitness was -0.205 ± 0.12.

As for A52H, the abundance fitness is -0.05 ± 0.21.

For A52D, the abundance fitness was -0.044 ± 0.22.

As to A52M, the abundance fitness is -0.269 ± 0.26.

In the case of A52C, the abundance fitness is -0.143 ± 0.17.

As for A52V, the abundance fitness is -0.348 ± 0.076.

Turning to A52R, the abundance fitness was -0.194 ± 0.14.

In the case of A52T, the abundance fitness was 0.172 ± 0.13.

W46E: the abundance fitness is -0.751 ± 0.31.

With W46V, the abundance fitness was -0.928 ± 0.29.

Regarding W46C, the abundance fitness was -1.15 ± 0.25.

As to W46A, the abundance fitness was -0.693 ± 0.1.

Take W46F: the abundance fitness is -0.547 ± 0.33.

In the case of W46H, the abundance fitness is -0.58 ± 0.36.

As for W46D, the abundance fitness is -0.428 ± 0.4.

As for W46L, the abundance fitness is -0.895 ± 0.29.

Regarding W46K, the abundance fitness was -0.925 ± 0.44.

W46Y: the abundance fitness was 0.48 ± 0.26.

As for W46G, the abundance fitness is -1.07 ± 0.18.

As to W46S, the abundance fitness is -0.595 ± 0.26.

On to W46T, for which the abundance fitness is -0.721 ± 0.36.

With W46P, the abundance fitness is -0.361 ± 0.26.

Consider N37C, for which the abundance fitness was -0.18 ± 0.065.

Turning to N37S, the abundance fitness was -0.459 ± 0.22.

With N37G, the abundance fitness was 0.093 ± 0.098.

As for N37K, the abundance fitness was -0.032 ± 0.079.

N37I: the abundance fitness is -0.431 ± 0.38.

N37E: the abundance fitness is -0.138 ± 0.13.

Turning to N37T, the abundance fitness was -0.258 ± 0.12.

As to N37M, the abundance fitness was -0.613 ± 0.36.

Regarding N37L, the abundance fitness is -0.312 ± 0.13.

In the case of N37W, the abundance fitness was -0.863 ± 0.47.

Consider N37D, for which the abundance fitness is -0.151 ± 0.31.

As to N37Q, the abundance fitness is -0.189 ± 0.085.

As for N37F, the abundance fitness was -0.195 ± 0.23.

N37H: the abundance fitness was -0.343 ± 0.3.

Take N37P: the abundance fitness is -0.051 ± 0.23.

Turning to N37Y, the abundance fitness was -0.634 ± 0.15.

Take R56D: the abundance fitness turned out to be 0.686 ± 0.31.

Consider R56W, for which the abundance fitness is 0.617 ± 0.15.

For the variant R56C, the abundance fitness amounted to 0.033 ± 0.1.

Regarding R56G, the abundance fitness worked out at 0.104 ± 0.25.

As to R56V, the abundance fitness was -0.171 ± 0.27.

On to I43G, for which the abundance fitness is -0.98 ± 0.13.

In the case of I43Q, the abundance fitness is -0.796 ± 0.46.

For I43W, the abundance fitness is -0.822 ± 0.16.

Turning to I43L, the abundance fitness was -0.581 ± 0.16.

I43T: the abundance fitness was -0.543 ± 0.31.

I43S: the abundance fitness is -0.917 ± 0.25.

Take I43K: the abundance fitness is -0.451 ± 0.4.

As for I43R, the abundance fitness is -0.936 ± 0.26.

Take I43E: the abundance fitness was -0.966 ± 0.48.

In the case of I43P, the abundance fitness was -0.912 ± 0.44.

For Q44F, the abundance fitness was -0.385 ± 0.28.

Regarding Q44G, the abundance fitness is -0.206 ± 0.12.

Consider Q44L, for which the abundance fitness is -0.079 ± 0.11.

Consider Q44Y, for which the abundance fitness was -0.582 ± 0.33.

With Q44C, the abundance fitness came out at 0.033 ± 0.085.

On to Q44M, for which the abundance fitness was -0.12 ± 0.26.

For the variant Q44T, the abundance fitness came out at 0.038 ± 0.1.

For Q44A, the abundance fitness worked out at 0.087 ± 0.14.

In the case of Q44K, the abundance fitness came to 0.179 ± 0.17.

In the case of Q44D, the abundance fitness is -0.007 ± 0.17.

Q44P: the abundance fitness was -0.982 ± 0.31.

Consider Q44I, for which the abundance fitness worked out at 0.061 ± 0.12.

Consider Q44E, for which the abundance fitness is -0.532 ± 0.33.

Q44H: the abundance fitness turned out to be 0.35 ± 0.18.

Regarding Q44S, the abundance fitness was -0.129 ± 0.08.

In the case of Q44N, the abundance fitness was -0.059 ± 0.26.

For the variant Q44V, the abundance fitness was -0.161 ± 0.12.

Regarding Q44W, the abundance fitness is -0.277 ± 0.23.
